Laboratory results from US20090136936A1 (RESEARCH DEVELOPMENT FOUNDATION, published 2009).
Positions count from the first letter of the chain named. Numbers in names are those of the source.

B1: Recombinant human FcγRI/CD64, extracellular domain, glycosylated (receptor, UniProt P12314 16-292, looked up)
chain: QVDTTKAVITLQPPWVSVFQEETVTLHCEVLHLPGSSSTQWFLNGTATQTSTPSYRITSASVNDSGEYRCQRGLSGRSDPIQLEIHRGWLLLQVSSRVFTEGEPLALRCHAWKDKLVYNVLYYRNGKAFKFFHWNSNLTILKTNISHNGTYHCSGMGKHRYTSAGISVTVKELFPAPVLNASVTSPLLEGNLVTLSCETKLLLQRPGLQLYFSFYMGSKTLRGRNTSSEYQILTARREDSGLYWCEAATEDGNVLKRSPELELQVLGLQLPTPVWFH
notes: extracellular domain; also called FcγRIa; FcγRIa-FITC
B2: Fc12 (N361D, E382V, M428I), aglycosylated Fc mutant (other)
chain: DKTHTCPPCPAPELLGGPSVFLFPPKPKDTLMISRTPEVTCVVVDVSHEDPEVKFNWYVDGVEVHNAKTKPREEQYNSTYRVVSVLTVLHQDWLNGKEYKCKVSNKALPAPIEKTISKAKGQPREPQVYTLPPSRDELTKDQVSLTCLVKGFYPSDIAVEWVSNGQPENNYKTTPPVLDSDGSFFLYSKLTVDKSRWQQGNVFSCSVIHEALHNHYTQKSLSLSPGK
B3: Fc100 (other)
Fc chain: B2 chain with D141N, E160T, V162M, N164E, I208M
B4: Fc23 (H310Y, K322R, T350A, E382V, S426T, S442P), aglycosylated Fc mutant (other)
chain: B2 chain with H90Y, K102R, T130A, D141N, S206T, I208M, S222P
B5: Fc20 (N361D, F372L, E382V, M428I), aglycosylated Fc mutant (other)
chain: B2 chain with F152L
B6: Fc49 (C229R, E382V, M428I), aglycosylated Fc mutant (other)
chain: B2 chain with C9R, D141N
notes: also called aglycosylated-Fc49
B7: Fc152 (H224R, E382V, S426T, M428S, E430P), aglycosylated Fc mutant (other)
chain: B2 chain with H4R, D141N, S206T, I208S, E210P
B8: Fc143 (P238S, E382V, S426V, M428L, E430H), aglycosylated Fc mutant (other)
chain: B2 chain with P18S, D141N, S206V, I208L, E210H
B9: Fc151 (E382V, S426I, M428L, E430S), aglycosylated Fc mutant (other)
chain: B2 chain with D141N, S206I, I208L, E210S
B10: Fc102 (other)
Fc chain: B2 chain
B11: Fc149 (E380D, E382V, N384R, S426V, M428L, E430D), aglycosylated Fc mutant (other)
chain: B2 chain with D141N, E160D, N164R, S206V, I208L, E210D
B12: Fc106 (E382T, N384D, M428I), aglycosylated Fc mutant (other)
chain: B2 chain with D141N, V162T, N164D
B13: Fc147 (other)
Fc chain: B2 chain with C9R, D141N
B14: Fc114 (N361S, E382V, M428I), aglycosylated Fc mutant (other)
chain: B2 chain with D141S
B15: dsbA-FcγRIIa-His (receptor, Homo sapiens, UniProt P12318 34-217, looked up)
receptor chain: QAAAPPKAVLKLEPPWINVLQEDSVTLTCQGARSPESDSIQWFHNGNLIPTHTQPSYRFKANNNDSGEYTCQTGQTSLSDPVHLTVLSEWLVLQTPHLEFQEGETIMLRCHSWKDKPLVKVTFFQNGKSQKFSHLDPTFSIPQANHSHSGDYHCTGNIGYTLFSSKPVTITVQVPSMGSSSPMG
notes: soluble mature form, exported to the E. coli periplasm by the dsbA signal; also called product of pTrcdsbAHis-FcγRIIa
B16: Fc217 (LGDGSPCKAN insertion between N297 and S298), aglycosylated Fc mutant (other)
chain: DKTHTCPPCPAPELLGGPSVFLFPPKPKDTLMISRTPEVTCVVVDVSHEDPEVKFNWYVDGVEVHNAKTKPREEQYNLGDGSPCKANSTYRVVSVLTVLHQDWLNGKEYKCKVSNKALPAPIEKTISKAKGQPREPQVYTLPPSRDELTKNQVSLTCLVKGFYPSDIAVEWESNGQPENNYKTTPPVLDSDGSFFLYSKLTVDKSRWQQGNVFSCSVMHEALHNHYTQKSLSLSPGK
B17: Fc209 (F241L, K326E, EVPLVWMWVS insertion between N297 and S298), aglycosylated Fc mutant (other)
chain: DKTHTCPPCPAPELLGGPSVLLFPPKPKDTLMISRTPEVTCVVVDVSHEDPEVKFNWYVDGVEVHNAKTKPREEQYNEVPLVWMWVSSTYRVVSVLTVLHQDWLNGKEYKCKVSNEALPAPIEKTISKAKGQPREPQVYTLPPSRDELTKNQVSLTCLVKGFYPSDIAVEWESNGQPENNYKTTPPVLDSDGSFFLYSKLTVDKSRWQQGNVFSCSVMHEALHNHYTQKSLSLSPGK
B18: Fc207 (QLISHYRHLT insertion between N297 and S298), aglycosylated Fc mutant (other)
chain: B16 chain with L78Q, G79L, D80I, G81S, S82H, P83Y, C84R, K85H, A86L, N87T
B19: Fc216 (WQVFNKYTKP insertion between N297 and S298), aglycosylated Fc mutant (other)
chain: B16 chain with L78W, G79Q, D80V, G81F, S82N, P83K, C84Y, K85T, A86K, N87P

Legend:
BSA = molecular target: T1, BSA (Bos taurus, UniProt P02769); experiment: fluorescence ELISA: BSA coated wells, FITC labeled FcγRIa serially diluted 4-fold [panel b]
T1 construct: also called BSA coated
T1 sequence (P02769 25-607 limits assumed): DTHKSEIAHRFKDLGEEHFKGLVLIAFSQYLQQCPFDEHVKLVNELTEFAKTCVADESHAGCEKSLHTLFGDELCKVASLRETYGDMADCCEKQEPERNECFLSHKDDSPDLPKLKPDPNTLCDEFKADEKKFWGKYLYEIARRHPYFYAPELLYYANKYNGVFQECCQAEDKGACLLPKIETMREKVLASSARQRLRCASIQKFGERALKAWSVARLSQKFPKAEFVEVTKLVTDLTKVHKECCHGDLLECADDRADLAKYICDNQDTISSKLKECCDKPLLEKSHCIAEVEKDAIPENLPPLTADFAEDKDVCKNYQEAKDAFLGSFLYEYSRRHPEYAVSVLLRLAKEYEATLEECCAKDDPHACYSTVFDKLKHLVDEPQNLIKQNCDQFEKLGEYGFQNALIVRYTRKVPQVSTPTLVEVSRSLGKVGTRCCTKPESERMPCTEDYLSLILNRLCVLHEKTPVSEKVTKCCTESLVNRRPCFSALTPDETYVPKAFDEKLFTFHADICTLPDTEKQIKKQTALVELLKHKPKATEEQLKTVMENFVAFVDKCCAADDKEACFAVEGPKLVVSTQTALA

[1] = molecular target: B1; experiment: flow cytometry of spheroplasts displaying the Fc, labelled with FcγRIa-FITC [panel b]
[2] = molecular target: B1; experiment: flow cytometry of spheroplasts displaying the Fc clone, labelled with FcγRIa-FITC; the value is repeated on D00019 and D00020
[3] = molecular target: B1; experiment: SPR (BIAcore 3000), FcγRIa immobilized on CM-5
Protein A-FITC = Protein A-FITC (Staphylococcus aureus, UniProt P38507 37-477); experiment: flow cytometry of spheroplasts, PMT 700V, TB with 0.5M trehalose, labeling with Protein A-FITC [panel a]
[4] = molecular target: T2, extracellular domain of aglycosylated FcγRIIIa purified from E. coli inclusion bodies, FITC-labeled (human, UniProt P08637 17-208); experiment: flow cytometry of spheroplasts displaying the Fc, labelled with FcγRIIIa-FITC
T2 construct: extracellular domain; also called FcγRIIIa-FITC
T2 sequence (P08637 17-208): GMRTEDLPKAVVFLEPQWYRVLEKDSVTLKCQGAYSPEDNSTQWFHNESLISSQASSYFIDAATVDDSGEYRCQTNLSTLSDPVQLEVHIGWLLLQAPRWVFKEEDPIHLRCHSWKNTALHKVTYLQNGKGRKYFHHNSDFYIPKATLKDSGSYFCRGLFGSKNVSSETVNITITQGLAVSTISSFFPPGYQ

B1
binding result (BSA): no binding

B2
M (mean fluorescence intensity) [1]: 307

B3
FACS mean value [2]: 138

B4
M (mean fluorescence intensity) [1]: 335

B5
M (mean fluorescence intensity) [1]: 295

B6
Kd [3]: 92 nM | koff [3]: 0.0023 s⁻¹ | kon [3]: 25000 M⁻¹ s⁻¹ | M (mean fluorescence intensity) [1]: 409

B7
FACS mean value [2]: 173

B8
FACS mean value [2]: 211

B9
FACS mean value [2]: 326

B10
FACS mean value [2]: 374

B11
FACS mean value [2]: 140

B12
FACS mean value [2]: 269

B13
FACS mean value [2]: 464

B14
FACS mean value [2]: 370

B15
binding result (Protein A-FITC): no binding

B16
M (mean fluorescence intensity) [4]: 500

B17
M (mean fluorescence intensity) [4]: 291

B18
M (mean fluorescence intensity) [4]: 143

B19
M (mean fluorescence intensity) [4]: 496
